For 5 molecules, hCT-R EC50 [nM] (cAMP formation, 1321N1 cells expressing hCT-R) and hAMYR3 EC50 [nM] (cAMP formation, 1321N1 cells expressing hAMYR3) results are on record in patent US20180071366A1.

The target of experiment [1] is recombinant human calcitonin receptor (hCT-R) (human), P30988. Description: cell-based or functional assay.
Experiment [2] addresses recombinant human amylin 3 receptor (hAMYR3) (human), P30988. Description: cell-based or functional assay.

Numbered stars: 1 amine (or outer) side, 2 acyl side, 3 side chain; on linkers, the order of the positions; unused ones are H or OH. Bridge positions count the residues as written; N and C are the ends. Square brackets hold non-standard residues; d marks the D form. * marks the point of attachment. C20 diacid = O=C(O)CCCCCCCCCCCCCCCCCCC(=O)*; γGlu = O=C(O)[C@H](CCC(=O)[*:2])N[*:1]; Hyp = O=C(O)[C@@H]1C[C@@H](O)CN1; NMeI = CC[C@H](C)[C@H](NC)C(=O)O; Aad = N[C@@H](CCCC(=O)O)C(=O)O; hLys = NCCCCC[C@H](N)C(=O)O; Orn = NCCC[C@H](N)C(=O)O; Sar = CNCC(=O)O

Chain of recombinant human calcitonin receptor (hCT-R) (human), P30988 (P30988 25-474): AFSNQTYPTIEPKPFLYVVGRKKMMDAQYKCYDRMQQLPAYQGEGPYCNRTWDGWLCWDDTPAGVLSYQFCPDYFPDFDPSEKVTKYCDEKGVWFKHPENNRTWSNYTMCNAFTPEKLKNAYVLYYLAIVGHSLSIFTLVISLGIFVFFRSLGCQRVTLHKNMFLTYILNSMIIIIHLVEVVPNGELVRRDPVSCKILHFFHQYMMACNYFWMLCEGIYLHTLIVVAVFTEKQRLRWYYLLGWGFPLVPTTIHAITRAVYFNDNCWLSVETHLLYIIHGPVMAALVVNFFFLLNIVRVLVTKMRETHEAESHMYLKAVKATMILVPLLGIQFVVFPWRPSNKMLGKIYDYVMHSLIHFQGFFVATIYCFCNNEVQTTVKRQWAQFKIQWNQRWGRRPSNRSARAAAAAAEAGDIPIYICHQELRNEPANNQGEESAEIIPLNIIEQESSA
Chain of recombinant human amylin 3 receptor (hAMYR3) (human), P30988 (P30988 25-474, chain 1 of 2): as the sequence (P30988 25-474) above
Chain of recombinant human amylin 3 receptor (hAMYR3) (human), P30988 (O60896 24-148, chain 2 of 2, further chain): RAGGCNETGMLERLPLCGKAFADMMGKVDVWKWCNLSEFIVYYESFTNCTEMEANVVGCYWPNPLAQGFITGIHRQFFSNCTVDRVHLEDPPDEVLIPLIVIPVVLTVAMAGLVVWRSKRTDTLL

B1: Compound 20 (peptide)
peptide: {C20 diacid-γGlu}-RDGTAT[Orn]ATERLA[Aad]FLQRSSF[Sar]A[NMeI]LSSTEVGSNT[Hyp]-NH2
modifications: lactam 2-7
SMILES: CC[C@H](C)[C@@H](C(=O)N[C@@H](CC(C)C)C(=O)N[C@@H](CO)C(=O)N[C@@H](CO)C(=O)N[C@H](C(=O)N[C@@H](CCC(=O)O)C(=O)N[C@H](C(=O)NCC(=O)N[C@@H](CO)C(=O)N[C@@H](CC(N)=O)C(=O)N[C@H](C(=O)N1C[C@H](O)C[C@H]1C(N)=O)[C@@H](C)O)C(C)C)[C@@H](C)O)N(C)C(=O)[C@H](C)NC(=O)CN(C)C(=O)[C@H](Cc1ccccc1)NC(=O)[C@H](CO)NC(=O)[C@H](CO)NC(=O)[C@H](CCCNC(=N)N)NC(=O)[C@H](CCC(N)=O)NC(=O)[C@H](CC(C)C)NC(=O)[C@H](Cc1ccccc1)NC(=O)[C@H](CCCC(=O)O)NC(=O)[C@H](C)NC(=O)[C@H](CC(C)C)NC(=O)[C@H](CCCNC(=N)N)NC(=O)[C@H](CCC(=O)O)NC(=O)[C@@H](NC(=O)[C@H](C)NC(=O)[C@@H]1CCCNC(=O)C[C@H](NC(=O)[C@H](CCCNC(=N)N)NC(=O)CC[C@H](NC(=O)CCCCCCCCCCCCCCCCCCC(=O)O)C(=O)O)C(=O)NCC(=O)N[C@@H]([C@@H](C)O)C(=O)N[C@@H](C)C(=O)N[C@@H]([C@@H](C)O)C(=O)N1)[C@@H](C)O
In the case of B1, the hCT-R EC50 [nM] (cAMP formation, 1321N1 cells expressing hCT-R) in experiment [1] turned out to be 0.009 nM. In addition, the hAMYR3 EC50 [nM] (cAMP formation, 1321N1 cells expressing hAMYR3) in experiment [2] was 0.003 nM.

B2: Compound 22 (peptide)
peptide: {C20 diacid-γGlu}-RDGTAT[Orn]ATERLA[Aad]FLTRSSF[Sar]A[NMeI]LSSTEVGSST[Hyp]-NH2
modifications: lactam 2-7
SMILES: CC[C@H](C)[C@@H](C(=O)N[C@@H](CC(C)C)C(=O)N[C@@H](CO)C(=O)N[C@@H](CO)C(=O)N[C@H](C(=O)N[C@@H](CCC(=O)O)C(=O)N[C@H](C(=O)NCC(=O)N[C@@H](CO)C(=O)N[C@@H](CO)C(=O)N[C@H](C(=O)N1C[C@H](O)C[C@H]1C(N)=O)[C@@H](C)O)C(C)C)[C@@H](C)O)N(C)C(=O)[C@H](C)NC(=O)CN(C)C(=O)[C@H](Cc1ccccc1)NC(=O)[C@H](CO)NC(=O)[C@H](CO)NC(=O)[C@H](CCCNC(=N)N)NC(=O)[C@@H](NC(=O)[C@H](CC(C)C)NC(=O)[C@H](Cc1ccccc1)NC(=O)[C@H](CCCC(=O)O)NC(=O)[C@H](C)NC(=O)[C@H](CC(C)C)NC(=O)[C@H](CCCNC(=N)N)NC(=O)[C@H](CCC(=O)O)NC(=O)[C@@H](NC(=O)[C@H](C)NC(=O)[C@@H]1CCCNC(=O)C[C@H](NC(=O)[C@H](CCCNC(=N)N)NC(=O)CC[C@H](NC(=O)CCCCCCCCCCCCCCCCCCC(=O)O)C(=O)O)C(=O)NCC(=O)N[C@@H]([C@@H](C)O)C(=O)N[C@@H](C)C(=O)N[C@@H]([C@@H](C)O)C(=O)N1)[C@@H](C)O)[C@@H](C)O
Consider B2, for which, in experiment [1], the hCT-R EC50 [nM] (cAMP formation, 1321N1 cells expressing hCT-R) came to 0.474 nM. In addition, the hAMYR3 EC50 [nM] (cAMP formation, 1321N1 cells expressing hAMYR3) in experiment [2] is 0.051 nM.

B3: Compound 21 (peptide)
peptide: {C20 diacid-γGlu}-RDGTAT[Orn]ATERLA[Aad]FLQRSSF[Sar]A[NMeI]PSSTEVGSNT[Hyp]-NH2
modifications: lactam 2-7
SMILES: CC[C@H](C)[C@@H](C(=O)N1CCC[C@H]1C(=O)N[C@@H](CO)C(=O)N[C@@H](CO)C(=O)N[C@H](C(=O)N[C@@H](CCC(=O)O)C(=O)N[C@H](C(=O)NCC(=O)N[C@@H](CO)C(=O)N[C@@H](CC(N)=O)C(=O)N[C@H](C(=O)N1C[C@H](O)C[C@H]1C(N)=O)[C@@H](C)O)C(C)C)[C@@H](C)O)N(C)C(=O)[C@H](C)NC(=O)CN(C)C(=O)[C@H](Cc1ccccc1)NC(=O)[C@H](CO)NC(=O)[C@H](CO)NC(=O)[C@H](CCCNC(=N)N)NC(=O)[C@H](CCC(N)=O)NC(=O)[C@H](CC(C)C)NC(=O)[C@H](Cc1ccccc1)NC(=O)[C@H](CCCC(=O)O)NC(=O)[C@H](C)NC(=O)[C@H](CC(C)C)NC(=O)[C@H](CCCNC(=N)N)NC(=O)[C@H](CCC(=O)O)NC(=O)[C@@H](NC(=O)[C@H](C)NC(=O)[C@@H]1CCCNC(=O)C[C@H](NC(=O)[C@H](CCCNC(=N)N)NC(=O)CC[C@H](NC(=O)CCCCCCCCCCCCCCCCCCC(=O)O)C(=O)O)C(=O)NCC(=O)N[C@@H]([C@@H](C)O)C(=O)N[C@@H](C)C(=O)N[C@@H]([C@@H](C)O)C(=O)N1)[C@@H](C)O
Take B3: the hCT-R EC50 [nM] (cAMP formation, 1321N1 cells expressing hCT-R) in experiment [1] amounted to 0.037 nM. The hAMYR3 EC50 [nM] (cAMP formation, 1321N1 cells expressing hAMYR3) in experiment [2] came to 0.01 nM.

B4: Compound 19 (peptide)
peptide: {C20 diacid-γGlu}-RDGTAT[hLys]ATERLAHFLQRSSF[Sar]A[NMeI]LSSTEVGSNT[Hyp]-NH2
modifications: lactam 2-7
SMILES: CC[C@H](C)[C@@H](C(=O)N[C@@H](CC(C)C)C(=O)N[C@@H](CO)C(=O)N[C@@H](CO)C(=O)N[C@H](C(=O)N[C@@H](CCC(=O)O)C(=O)N[C@H](C(=O)NCC(=O)N[C@@H](CO)C(=O)N[C@@H](CC(N)=O)C(=O)N[C@H](C(=O)N1C[C@H](O)C[C@H]1C(N)=O)[C@@H](C)O)C(C)C)[C@@H](C)O)N(C)C(=O)[C@H](C)NC(=O)CN(C)C(=O)[C@H](Cc1ccccc1)NC(=O)[C@H](CO)NC(=O)[C@H](CO)NC(=O)[C@H](CCCNC(=N)N)NC(=O)[C@H](CCC(N)=O)NC(=O)[C@H](CC(C)C)NC(=O)[C@H](Cc1ccccc1)NC(=O)[C@H](Cc1c[nH]cn1)NC(=O)[C@H](C)NC(=O)[C@H](CC(C)C)NC(=O)[C@H](CCCNC(=N)N)NC(=O)[C@H](CCC(=O)O)NC(=O)[C@@H](NC(=O)[C@H](C)NC(=O)[C@@H]1CCCCCNC(=O)C[C@H](NC(=O)[C@H](CCCNC(=N)N)NC(=O)CC[C@H](NC(=O)CCCCCCCCCCCCCCCCCCC(=O)O)C(=O)O)C(=O)NCC(=O)N[C@@H]([C@@H](C)O)C(=O)N[C@@H](C)C(=O)N[C@@H]([C@@H](C)O)C(=O)N1)[C@@H](C)O
For B4, in experiment [1], the hCT-R EC50 [nM] (cAMP formation, 1321N1 cells expressing hCT-R) came out at 0.028 nM. The hAMYR3 EC50 [nM] (cAMP formation, 1321N1 cells expressing hAMYR3) in experiment [2] was found to be 0.006 nM.

B5: Compound 18 (peptide)
peptide: {C20 diacid-γGlu}-RDGTATKATERLAHFLQRSSF[Sar]A[NMeI]LSSTEVGSNT[Hyp]-NH2
modifications: lactam 2-7
SMILES: CC[C@H](C)[C@@H](C(=O)N[C@@H](CC(C)C)C(=O)N[C@@H](CO)C(=O)N[C@@H](CO)C(=O)N[C@H](C(=O)N[C@@H](CCC(=O)O)C(=O)N[C@H](C(=O)NCC(=O)N[C@@H](CO)C(=O)N[C@@H](CC(N)=O)C(=O)N[C@H](C(=O)N1C[C@H](O)C[C@H]1C(N)=O)[C@@H](C)O)C(C)C)[C@@H](C)O)N(C)C(=O)[C@H](C)NC(=O)CN(C)C(=O)[C@H](Cc1ccccc1)NC(=O)[C@H](CO)NC(=O)[C@H](CO)NC(=O)[C@H](CCCNC(=N)N)NC(=O)[C@H](CCC(N)=O)NC(=O)[C@H](CC(C)C)NC(=O)[C@H](Cc1ccccc1)NC(=O)[C@H](Cc1c[nH]cn1)NC(=O)[C@H](C)NC(=O)[C@H](CC(C)C)NC(=O)[C@H](CCCNC(=N)N)NC(=O)[C@H](CCC(=O)O)NC(=O)[C@@H](NC(=O)[C@H](C)NC(=O)[C@@H]1CCCCNC(=O)C[C@H](NC(=O)[C@H](CCCNC(=N)N)NC(=O)CC[C@H](NC(=O)CCCCCCCCCCCCCCCCCCC(=O)O)C(=O)O)C(=O)NCC(=O)N[C@@H]([C@@H](C)O)C(=O)N[C@@H](C)C(=O)N[C@@H]([C@@H](C)O)C(=O)N1)[C@@H](C)O
In the case of B5, the hCT-R EC50 [nM] (cAMP formation, 1321N1 cells expressing hCT-R) in experiment [1] was found to be 0.085 nM. The hAMYR3 EC50 [nM] (cAMP formation, 1321N1 cells expressing hAMYR3) in experiment [2] is 0.031 nM.
